This note sets out measurements from US20260226192.

For the data set, the system named is Engineered trastuzumab antibody design 18 [anti-Her2 ScFv-FC].
Engineered trastuzumab antibody design 18 [anti-Her2 ScFv-FC], sequence (chain, as listed by the source, change not shown): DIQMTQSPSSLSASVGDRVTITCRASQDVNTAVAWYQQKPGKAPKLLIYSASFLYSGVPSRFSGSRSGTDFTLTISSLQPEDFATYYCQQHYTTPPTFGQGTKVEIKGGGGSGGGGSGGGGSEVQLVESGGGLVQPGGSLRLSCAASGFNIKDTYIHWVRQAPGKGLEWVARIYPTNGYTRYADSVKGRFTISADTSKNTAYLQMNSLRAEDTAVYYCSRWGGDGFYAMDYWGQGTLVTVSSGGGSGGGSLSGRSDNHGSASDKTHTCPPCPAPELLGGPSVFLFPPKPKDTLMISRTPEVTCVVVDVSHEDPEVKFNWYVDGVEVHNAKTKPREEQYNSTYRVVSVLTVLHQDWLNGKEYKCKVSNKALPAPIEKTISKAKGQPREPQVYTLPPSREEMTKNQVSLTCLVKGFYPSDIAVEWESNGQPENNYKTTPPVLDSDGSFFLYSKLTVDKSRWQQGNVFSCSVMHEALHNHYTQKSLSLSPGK

uPA protease: the “protease digestion with uPA (1:1 molar), SDS-PAGE” value was “uPA cleaved the antibody variants and generated F(ab) fragments in a similar manner as it did for the other designs”.
